Measurements taken from FireProtDB (doi:10.1074/jbc.272.30.18686).

B1: Ribonuclease HI, P0A7Y4 (parent)
chain: MLKQVEIFTDGSCLGNPGPGGYGAILRYRGREKTFSAGYTRTTNNRMELMAAIVALEALKEHCEVILSTDSQYVRQGITQWIHNWKKRGWKTADKKPVKNVDLWQRLDAALGQHQIKWEWVKGHAGHPENERCDELARAAAMNPTLEDTGYQVEV

Variants of: B1
Settings: Escherichia coli (strain K12), pH 3.2, Thermal, CD, glycine-HCl 10 mM, reversible: yes, structure 2RN2, whole UniProt chain shown; for ddG of mutation (higher = less stable): 53 °C

For A52I V74L, the “ddG of mutation (higher = less stable)” value was -1.19 kcal/mol, the Tm was 56.9 °C and the “change of melting temperature, mutant - wild type (higher = more stable)” value (“change of melting temperature, mutant” for short) was 3.9 °C. For the same variant, the “unfolding enthalpy (van 't Hoff)” value was 122 kcal/mol.

With A52I V74A the “ddG of mutation (higher = less stable)” value was -1.19 kcal/mol, the Tm was 56.9 °C and the “change of melting temperature, mutant” value was 3.9 °C. The “unfolding enthalpy (van 't Hoff)” value was 102 kcal/mol.

With A52F V74L the “ddG of mutation (higher = less stable)” value was -0.03 kcal/mol, the Tm was 53.1 °C and the “change of melting temperature, mutant” value was 0.1 °C. The “unfolding enthalpy (van 't Hoff)” value was 99.8 kcal/mol.

With A52F V74A the Tm was 48.4 °C, the “change of melting temperature, mutant” value was -4.6 °C and the “unfolding enthalpy (van 't Hoff)” value was 85.8 kcal/mol.

With A52L V74A the “ddG of mutation (higher = less stable)” value was -0.36 kcal/mol, the Tm was 54.2 °C and the “change of melting temperature, mutant” value was 1.2 °C. For the same variant, the “unfolding enthalpy (van 't Hoff)” value was 105 kcal/mol.

In the case of A52L V74L, the “ddG of mutation (higher = less stable)” value is reported as -1.49 kcal/mol, the Tm is reported as 57.9 °C and the “change of melting temperature, mutant” value is reported as 4.9 °C. For the same variant, the “unfolding enthalpy (van 't Hoff)” value was 118 kcal/mol.

With A52G V74L the “ddG of mutation (higher = less stable)” value was 1.4 kcal/mol, the Tm was 48.4 °C and the “change of melting temperature, mutant” value was -4.6 °C. The “unfolding enthalpy (van 't Hoff)” value was 97.8 kcal/mol.

For A52K, the “ddG of mutation (higher = less stable)” value was 5.9 kcal/mol, the Tm was 33.5 °C and the “change of melting temperature, mutant” value was -19.5 °C. For the same variant, the “unfolding enthalpy (van 't Hoff)” value was 70.8 kcal/mol.

In the case of A52V, the “ddG of mutation (higher = less stable)” value is reported as -1.7 kcal/mol, the Tm is reported as 58.5 °C and the “change of melting temperature, mutant” value is reported as 5.5 °C. The “unfolding enthalpy (van 't Hoff)” value was 128 kcal/mol.

For A52P, the “ddG of mutation (higher = less stable)” value was 1.6 kcal/mol, the Tm was 47.6 °C and the “change of melting temperature, mutant” value was -5.4 °C. For the same variant, the “unfolding enthalpy (van 't Hoff)” value was 93 kcal/mol.

For A52N, the “ddG of mutation (higher = less stable)” value was 1.8 kcal/mol, the Tm was 47.1 °C and the “change of melting temperature, mutant” value was -5.9 °C. For the same variant, the “unfolding enthalpy (van 't Hoff)” value was 95.6 kcal/mol.

In the case of A52S, the “ddG of mutation (higher = less stable)” value is reported as 1.8 kcal/mol, the Tm is reported as 47.2 °C and the “change of melting temperature, mutant” value is reported as -5.8 °C. For the same variant, the “unfolding enthalpy (van 't Hoff)” value was 118 kcal/mol.

For A52Y, the “ddG of mutation (higher = less stable)” value was 2.3 kcal/mol, the Tm was 45.4 °C and the “change of melting temperature, mutant” value was -7.6 °C. The “unfolding enthalpy (van 't Hoff)” value was 70.8 kcal/mol.

With A52I the “ddG of mutation (higher = less stable)” value was -1.9 kcal/mol, the Tm was 59.2 °C and the “change of melting temperature, mutant” value was 6.2 °C. For the same variant, the “unfolding enthalpy (van 't Hoff)” value was 84.8 kcal/mol.

For A52E, the “ddG of mutation (higher = less stable)” value was 1.5 kcal/mol.

In the case of A52F, the Tm is reported as 51.5 °C, the “change of melting temperature, mutant” value is reported as -1.5 °C and the “unfolding enthalpy (van 't Hoff)” value is reported as 89 kcal/mol.

For A52D, the “ddG of mutation (higher = less stable)” value was 1.9 kcal/mol.

In the case of A52L, the “ddG of mutation (higher = less stable)” value is reported as -1.3 kcal/mol.

With A52Q the “ddG of mutation (higher = less stable)” value was 1.2 kcal/mol, the Tm was 49.1 °C and the “change of melting temperature, mutant” value was -3.9 °C. The “unfolding enthalpy (van 't Hoff)” value was 90.3 kcal/mol.

For A52C, the “ddG of mutation (higher = less stable)” value was -0.8 kcal/mol, the Tm was 55.5 °C and the “change of melting temperature, mutant” value was 2.5 °C. The “unfolding enthalpy (van 't Hoff)” value was 128 kcal/mol.

In the case of A52H, the Tm is reported as 41.2 °C, the “change of melting temperature, mutant” value is reported as -11.8 °C and the “unfolding enthalpy (van 't Hoff)” value is reported as 84.7 kcal/mol.

With A52T the “ddG of mutation (higher = less stable)” value was 0.8 kcal/mol, the Tm was 50.3 °C and the “change of melting temperature, mutant” value was -2.7 °C. The “unfolding enthalpy (van 't Hoff)” value was 108 kcal/mol.

In the case of A52M, the “ddG of mutation (higher = less stable)” value is reported as -0.5 kcal/mol, the Tm is reported as 54.6 °C and the “change of melting temperature, mutant” value is reported as 1.6 °C. For the same variant, the “unfolding enthalpy (van 't Hoff)” value was 112 kcal/mol.

For A52G, the Tm was 44.1 °C, the “change of melting temperature, mutant” value was -8.9 °C and the “unfolding enthalpy (van 't Hoff)” value was 91 kcal/mol.

For A52V V74L, the “ddG of mutation (higher = less stable)” value was -2.43 kcal/mol, the Tm was 61 °C and the “change of melting temperature, mutant” value was 8.07 °C. The “unfolding enthalpy (van 't Hoff)” value was 126 kcal/mol.

For A52V V74A, the “ddG of mutation (higher = less stable)” value was 0.52 kcal/mol, the Tm was 51.3 °C and the “change of melting temperature, mutant” value was -1.7 °C. The “unfolding enthalpy (van 't Hoff)” value was 107 kcal/mol.
